This note sets out measurements from patent publication US8247194 (Amgen, dated 2012).

Test [1] addresses T1, recombinant human GM-CSF (rhGM-CSF), produced in E. coli (human, UniProt P04141 18-144).
T1 construct: The ELISA of 2.5.2 and the TF-1 proliferation assays say only rhGM-CSF without naming the preparation; they are assigned to this molecule; also called human GM-CSF antigen; recombinant human granulocyte macrophage colony stimulating factor
The experiment in a line: SPR, rhGM-CSF coated chip, 1:1 Langmuir fit, analyte 38.5 nM.

The target in test [2] is T1, recombinant human GM-CSF (rhGM-CSF), …. The experiment in a line: SPR, rhGM-CSF coated chip, 1:1 Langmuir fit, analyte 116 nM. A general note: Surface plasmon resonance follows binding to a sensor surface in real time, without labels.
Test [3] shares this target. As to the kind of experiment: SPR, rhGM-CSF coated chip, 1:1 Langmuir fit, analyte 3120 nM; analyte concentration 3120 nM.
For test [4] the target is unchanged. As to the kind of experiment: SPR, purified SCA over rhGM-CSF coated chip, 1:1 Langmuir fit. The procedure:
FIG. 36A, B: Kinetic binding analysis of SCA leads derived from the method of the invention, as determined by SPR. Binding kinetics (kd and ka) of the SCA leads were measured injecting 10 μL of purified protein in dilution series ranging from 10 μg/mL to 1 pg/mL purified SCA onto a rhGM-CSF coated sensor chip surface. The dissociation was monitored at 25° C. for 100 sec. Data were fitted using BIAevalution™ software determining the rate constant for dissociation (FIG. 36B) and association (FIG. 36A) kinetics. The residuals corresponding to the fitted data monitoring the deviation from the raw data indicated no systematic deviation for the fit.

For test [5] the target is unchanged. The experiment in a line: SPR, rhGM-CSF coated chip, 1:1 Langmuir fit, analyte 3120 nM.
For test [6] the target is unchanged. As to the kind of experiment: SPR, rhGM-CSF coated chip, 1:1 Langmuir fit, analyte 1040 nM.
The target is the same in test [7]. As to the kind of experiment: cell-based or functional assay.
Test [8] shares this target. As to the kind of experiment: SPR, rhGM-CSF coated chip, 1:1 Langmuir fit, analyte 347 nM.
Test [9] shares this target. As to the kind of experiment: SPR, rhGM-CSF coated chip, 1:1 Langmuir fit, analyte 12.8 nM.
Test [10] shares this target. The experiment in a line: cell-based or functional assay. The source holds these as a separate data set.

T1 sequence (P04141 18-144 limits assumed): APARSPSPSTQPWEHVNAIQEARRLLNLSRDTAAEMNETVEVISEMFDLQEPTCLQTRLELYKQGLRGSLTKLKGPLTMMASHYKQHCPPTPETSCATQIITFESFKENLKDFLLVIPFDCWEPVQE

B1: half-human SCA B32oN-45 (scFv)
scFv: ELQLVEQSGAALVKPGDSVKMSCKASGYPFTDYIVHWVKQSHGKSLDWIGYINPYSGDTKFNEKFKSKATLTVDKSSSTAYMEFSRLTSEDSAIYYCARSGLIAVYFDYWGQGTTVTVSSGGGGSGGGGSGGGGSELVMTQSPSSVSASVGDRVTIACRASQNIRNILNWYQQRPGKAPQLLIYAASNLQSGVPSRFSGSGSGTDFTLTINSLQPEDFATYYCQQSYSMPRTFGGGTKVEIKTGDYKDDDDKHHHHHH
notes: Expressed from pComb3H5BFlag/His, which adds the Flag-tag between the SCA and the His6-tag; As a lead it was purified by IMAC and gel filtration; also called maternal SCA B32oN-45
The term Kd denotes the concentration at which binding is half-saturated. The koff is a measure of how fast the partners let go of each other. The kon is the rate constant with which the complex forms. As to B1, the Ka in test [1] was 2.2e+08 M⁻¹; in test [2], 1.66e+08 M⁻¹; in [5], 1.06e+07 M⁻¹; in test [6] it was 1.89e+07 M⁻¹; in test [8], 9.22e+07 M⁻¹; in [9] it was 3.25e+08 M⁻¹. Besides, the dissociation constant (Kd) worked out at 4.55 nM in [1]; 6.01 nM in [2]; 94.6 nM in test [3]; 50 nM in test [4]; 52.8 nM in test [6]; 10.8 nM in test [8]. Further, the Kd in test [9] turned out to be 3.07 nM. Besides, the koff in [1] was 0.00444 s⁻¹; in test [2], 0.00464 s⁻¹; in [5], 0.00514 s⁻¹; in [6], 0.0046 s⁻¹; in test [8] it was 0.00477 s⁻¹; in [9], 0.00384 s⁻¹. Moreover, the kon in [1] was determined as 975000 M⁻¹ s⁻¹; in test [2], 772000 M⁻¹ s⁻¹; in test [5], 54300 M⁻¹ s⁻¹; in [6], 87100 M⁻¹ s⁻¹; in test [8], 440000 M⁻¹ s⁻¹; in [9] it was 1.25e+06 M⁻¹ s⁻¹. In test [7], the “half maximal inhibition constant (IC50), rhGM-CSF dependent proliferation of TF-1 cells” value came to 6 nM.

B2: half-human SCA C33oN-33 (scFv)
scFv: ELQLVEQSGAALVKPGDSVKMSCKASGYPFTDYIVHWVKQSHGKSLDWIGYINPYSGDTKFNEKFKSKATLTVDKSSSTAYMEFSRLTSEDSAIYYCARSGLIAVYFDYWGQGTTVTVSSGGGGSGGGGSGGGGSELVLTQSPDFQSVTPKEKVTITCRASQSIGSSLHWYQQKPDQSPKLLIKFASQSLSGVPSRFSGSGSGTDFTLTINSLEAEDAATYYCQQSYSTPSTFGPGTKVEIKTGDYKDDDDKHHHHHH
Turning to B2, in test [10], the “IC50 (read off the curve), TF-1 proliferation, C33ON-33 dimer” value was ~0.2 µg/mL and the “IC50 (read off the curve), TF-1 proliferation, C33ON-33 mono” value was ~0.2 µg/mL.
